Laboratory results published in patent publication US20190127451A1.

Molecular target: alternative-spliced domain A1 of human Tenascin C (human) (UniProt P24821)
Test: SPR (BIAcore), antibody over hTnC A1 on CM5 chip, fitted 50 nM curves

Chain of UniProt P24821 (P24821 1072-1162): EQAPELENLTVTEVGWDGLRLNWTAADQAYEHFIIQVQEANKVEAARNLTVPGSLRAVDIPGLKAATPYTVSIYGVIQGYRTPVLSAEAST

fold lower apparent KD than wild-type IgG(F16)-3S: 4 to 8 fold
B1: IgG(F16)-3S-N88Q (antibody, V domains shown)
VH: EVQLLESGGGLVQPGGSLRLSCAASGFTFSRYGMSWVRQAPGKGLEWVSAISGSGGSTYYADSVKGRFTISRDNSKNTLYLQMNSLRAEDTAVYYCAKAHNAFDYWGQGTLVTVSS
VL: SSELTQDPAVSVALGQTVRITCQGDSLRSYYASWYQQKPGQAPVLVIYGKNNRPSGIPDRFSGSSSGNTASLTITGAQAEDEADYYCQSSVYTMPPVVFGGGTKLTVLG
modifications: glycosylated Heavy Chain (site not given)
